Where a chain is given by its changes, count along the chain named.
T1: hsGLUT4 E315A (human, UniProt P14672 1-509)
T1 sequence: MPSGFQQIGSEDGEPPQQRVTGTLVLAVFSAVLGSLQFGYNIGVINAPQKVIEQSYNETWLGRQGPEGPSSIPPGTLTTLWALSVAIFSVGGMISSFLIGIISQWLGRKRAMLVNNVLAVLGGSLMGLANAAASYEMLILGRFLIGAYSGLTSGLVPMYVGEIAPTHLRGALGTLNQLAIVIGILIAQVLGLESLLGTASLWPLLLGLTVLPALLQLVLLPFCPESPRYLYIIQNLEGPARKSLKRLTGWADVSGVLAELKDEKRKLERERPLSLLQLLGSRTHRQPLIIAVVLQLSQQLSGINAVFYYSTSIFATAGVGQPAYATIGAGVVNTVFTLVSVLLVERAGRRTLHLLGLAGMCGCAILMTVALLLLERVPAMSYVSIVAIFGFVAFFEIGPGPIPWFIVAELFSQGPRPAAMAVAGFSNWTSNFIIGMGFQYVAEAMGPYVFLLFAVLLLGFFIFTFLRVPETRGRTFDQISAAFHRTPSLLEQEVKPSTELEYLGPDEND

T2: hsGLUT4 L155A (human, UniProt P14672 1-509)
T2 sequence: T1 sequence with L155A, A315E

T3: hsGLUT4 Y309A (human, UniProt P14672 1-509)
T3 sequence: T1 sequence with Y309A, A315E

T4: hsGLUT4 L61A (human, UniProt P14672 1-509)
T4 sequence: T1 sequence with L61A, A315E

B1: AB108 (Fc fusion)
scFv: ALTQPSSVSANLGGTVKITCSGSSGSYGWYQQKAPGSAPVTLIYRNDKRPSDIPSRFSGSESGSTGTLTITGVQAEDEAVYFCGGYDSSAGYAAFGAGTTLTVLGQSSRSSGGGGSSGGGGSAVTLDESGGGLQTPGGALSLVCKASGFTFSSHGMGWVRQAPGKGLEWVGSISTGRYTFYAPAVKGRATISRDNGQSTLRLQLNNLRAEDTGTYYCTKCAGLNGCGGGEIDAWGHGTEVIVSS
notes: Bivalent scFv-Fc; also called MAb AB108; not shown: Fc fragment of human IgG1, cloned in frame with the scFv
B2: AB101 (scFv)
scFv: ALTQPSSVSANPGETVKITCSGSSNSYGWYQQKSPGSAPVTVIYYNDKRPSDIPSRFSGSKSDSTHTLTITGVRAEDEAVYFCGSYDSTYVGIFGAGTTLTVLGQSSRSSGGGGSSGGGGSAVTLDESGGGLQTPGGTLSLVCKASGFTFSSNAMGWVRQAPGKGLEWVAGISSDGRYTKYGSAVKGRATISRDNGQSTVRLQLNNLRAEDTGTYFCAKAFGNNYRRIYAGQIDAWGHGTEVIVSS
notes: Chicken-derived clone used as a control; the four lead clones were tested as scFv-human IgG1 Fc; also called MAb AB101
B3: AB111 (Fc fusion)
scFv: ALTQPSSVSANPGETVKITCSGSGSWYGWFQQKSPGSAPVTVIYSNDKRPSDIPSRFSGSKSGSTSTLTITGVQVEDEAVYYCGNWDIFGAGTTLTVLGQSSRSSGGGGSSGGGGSAVTLDESGGGLQTPGGALSLVCKASGFTFSSHGMGWVRQAPGKGLEWVASISTGRYTFYAPAVKGRATISRDNGQSTVRLQLNNLRAEDTATYYCTKCAGLNGCGGGEIDAWGHGTEVIVSS
notes: Bivalent scFv-Fc; also called MAb AB111; not shown: Fc fragment of human IgG1, cloned in frame with the scFv

Legend:
Experiment in all cases: flow cytometry, alanine-scan library in HEK-293T
[1] = biological target: T1, hsGLUT4 E315A
Procedure, shortened: (§1)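 HEK-293T cells expressing individual GLUT4 alanine mutants were stained 48 h post-transfection with anti-GLUT4 scFv MAbs (2 μg/ml), then biotinylated secondary and streptavidin-PerCP, and read by high-throughput flow cytometry. Where used, cytochalasin B (10 uM final) was given for 30 min before and during primary antibody staining.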

[2] = biological target: T2, hsGLUT4 L155A
Procedure, shortened: as §1

[3] = biological target: T3, hsGLUT4 Y309A
Procedure, shortened: as §1

[4] = biological target: T4, hsGLUT4 L61A
Procedure, shortened: as §1

Row | Molecule | % of binding to wild type GLUT4 [1] [%] | % of binding to wild type GLUT4 [2] [%] | % of binding to wild type GLUT4 [3] [%] | % of binding to wild type GLUT4 [4] [%]
1 | 1F8 (antibody) | 93 | 91 | 75 | 90
2 | B1 | 96 | 42 | 91 | 13
3 | B2 | 130 | 88 | 64 | 115
4 | B3 | 164 | 57 | 110 | 80

— US20210238276A1 (INTEGRAL MOLECULAR, published 2021)
